{"source": "patent US20190177366A1", "about": "(published 2019)", "binders": {"B1": {"name": "Phage-displayed Pep2-8 (on p8) (peptide)", "chain": "TVFTSWEEYLDWV", "notes": "Peptide fused to the N-terminus of p8 on M13 phage; also called phage displaying Pep2-8; not shown: M13 major coat protein p8"}, "B2": {"name": "Compound 108 (peptide)", "peptide": "Ac-CR[dL]PWNLQRIGLPC-NH2", "modifications": "disulfide 1-14", "SMILES": "CC[C@H](C)[C@@H]1NC(=O)[C@H](CCCNC(=N)N)NC(=O)[C@H](CCC(N)=O)NC(=O)[C@H](CC(C)C)NC(=O)[C@H](CC(N)=O)NC(=O)[C@H](Cc2c[nH]c3ccccc23)NC(=O)[C@@H]2CCCN2C(=O)[C@@H](CC(C)C)NC(=O)[C@H](CCCNC(=N)N)NC(=O)[C@@H](NC(C)=O)CSSC[C@@H](C(N)=O)NC(=O)[C@@H]2CCCN2C(=O)[C@H](CC(C)C)NC(=O)CNC1=O"}, "B3": {"name": "Compound 109 (peptide)", "peptide": "Ac-C[dR]LPWNLQRIGLPC-NH2", "modifications": "disulfide 1-14", "SMILES": "CC[C@H](C)[C@@H]1NC(=O)[C@H](CCCNC(=N)N)NC(=O)[C@H](CCC(N)=O)NC(=O)[C@H](CC(C)C)NC(=O)[C@H](CC(N)=O)NC(=O)[C@H](Cc2c[nH]c3ccccc23)NC(=O)[C@@H]2CCCN2C(=O)[C@H](CC(C)C)NC(=O)[C@@H](CCCNC(=N)N)NC(=O)[C@@H](NC(C)=O)CSSC[C@@H](C(N)=O)NC(=O)[C@@H]2CCCN2C(=O)[C@H](CC(C)C)NC(=O)CNC1=O"}}, "key": {"[1]": {"biological_target": "T1, proprotein convertase subtilisin/kexin type 9 (PCSK9) (human, UniProt Q8NBP7 31-152)", "T1 construct": "domain: prodomain; Recombinant; tag not written as a part; also called rec.PCSK9; His-PCSK9", "T1 sequence (Q8NBP7 31-152 limits assumed, chain 1 of 2)": "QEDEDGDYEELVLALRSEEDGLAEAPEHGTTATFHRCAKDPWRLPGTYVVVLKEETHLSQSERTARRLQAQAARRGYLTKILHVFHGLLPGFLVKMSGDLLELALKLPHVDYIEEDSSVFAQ", "T1 sequence (Q8NBP7 153-692 limits assumed, chain 2 of 2)": "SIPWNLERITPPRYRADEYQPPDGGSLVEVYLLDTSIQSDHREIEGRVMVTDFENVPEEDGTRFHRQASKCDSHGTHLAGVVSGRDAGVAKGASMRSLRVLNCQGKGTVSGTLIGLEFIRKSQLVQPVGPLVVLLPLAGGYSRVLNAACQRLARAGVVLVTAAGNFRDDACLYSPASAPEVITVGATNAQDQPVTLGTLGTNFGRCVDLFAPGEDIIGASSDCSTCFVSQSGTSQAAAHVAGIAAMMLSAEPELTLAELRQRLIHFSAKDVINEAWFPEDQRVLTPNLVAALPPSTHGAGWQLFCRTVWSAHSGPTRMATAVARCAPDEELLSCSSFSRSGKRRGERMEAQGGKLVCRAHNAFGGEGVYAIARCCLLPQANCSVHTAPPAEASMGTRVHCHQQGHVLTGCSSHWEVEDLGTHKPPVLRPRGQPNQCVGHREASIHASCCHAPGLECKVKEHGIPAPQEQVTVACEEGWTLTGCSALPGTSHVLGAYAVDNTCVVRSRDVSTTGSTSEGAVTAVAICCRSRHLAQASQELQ", "assay": "phage competition ELISA"}, "[2]": {"biological_target": "T2, PCSK9Δhelix (human PCSK9 lacking the P' helix, His-tagged) (human, UniProt Q8NBP7 31-152; Q8NBP7 168-692)", "T2 construct": "Construct M1-Q692 with engineered TEV site (Y166, R167 deleted, ENLYFQS inserted between R165 and A168), cleaved by TEV protease; new N-terminus of the catalytic domain is S-A168; also called His-PCSK9Δhelix", "T2 sequence (Q8NBP7 31-152, stated change not applied, chain 1 of 2)": "as the sequence (Q8NBP7 31-152 limits assumed, chain 1 of 2) above", "T2 sequence (Q8NBP7 other isoform, or with tags, fused parts or gaps mutant, chain 2 of 2)": "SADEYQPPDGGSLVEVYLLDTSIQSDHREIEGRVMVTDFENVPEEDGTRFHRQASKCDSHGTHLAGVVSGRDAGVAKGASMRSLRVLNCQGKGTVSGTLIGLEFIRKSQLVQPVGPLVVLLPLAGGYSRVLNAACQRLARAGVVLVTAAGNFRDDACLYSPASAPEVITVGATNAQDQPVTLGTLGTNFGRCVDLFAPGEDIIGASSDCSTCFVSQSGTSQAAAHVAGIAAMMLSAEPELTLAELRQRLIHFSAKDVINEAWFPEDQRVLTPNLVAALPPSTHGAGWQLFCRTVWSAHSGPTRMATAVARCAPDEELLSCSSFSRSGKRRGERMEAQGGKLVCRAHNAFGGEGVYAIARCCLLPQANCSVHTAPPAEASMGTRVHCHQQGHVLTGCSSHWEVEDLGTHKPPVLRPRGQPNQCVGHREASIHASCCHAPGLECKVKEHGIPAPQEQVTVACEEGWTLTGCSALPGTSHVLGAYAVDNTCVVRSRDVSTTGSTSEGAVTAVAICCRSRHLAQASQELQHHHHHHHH", "assay": "TR-FRET competition vs Ab20 on His-PCSK9Δhelix"}, "[3]": {"biological_target": "T3, human PCSK9 (proprotein convertase subtilisin/kexin type 9), His-tagged, full-length (human, UniProt A8T644 31-152; Q8NBP7 153-692, limits assumed)", "T3 construct": "The secreted protein is the prodomain plus the catalytic/Cys-rich part (N-terminus S153) after autocleavage; also called His-PCSK9; NARC-1", "T3 sequence (A8T644 31-152 limits assumed, chain 1 of 2)": "as the sequence (Q8NBP7 31-152 limits assumed, chain 1 of 2) above", "T3 sequence (A8T644 other isoform, or with tags, fused parts or gaps limits assumed, chain 2 of 2)": "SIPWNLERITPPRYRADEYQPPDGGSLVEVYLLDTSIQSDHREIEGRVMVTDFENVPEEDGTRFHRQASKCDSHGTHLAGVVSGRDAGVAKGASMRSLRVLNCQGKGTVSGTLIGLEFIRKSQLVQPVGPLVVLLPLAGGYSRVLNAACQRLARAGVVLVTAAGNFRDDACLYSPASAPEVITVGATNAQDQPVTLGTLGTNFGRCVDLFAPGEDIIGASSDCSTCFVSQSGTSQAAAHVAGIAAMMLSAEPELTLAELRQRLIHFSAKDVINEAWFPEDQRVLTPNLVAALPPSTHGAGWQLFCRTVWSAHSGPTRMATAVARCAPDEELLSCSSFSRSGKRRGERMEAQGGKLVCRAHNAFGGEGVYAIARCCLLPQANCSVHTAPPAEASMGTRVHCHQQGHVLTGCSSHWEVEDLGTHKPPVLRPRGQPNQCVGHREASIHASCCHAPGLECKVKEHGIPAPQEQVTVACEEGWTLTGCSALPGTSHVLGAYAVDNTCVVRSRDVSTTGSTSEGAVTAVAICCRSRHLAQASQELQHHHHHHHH", "assay": "TR-FRET competition vs EGF(A)-Fc on His-PCSK9"}, "[4]": {"biological_target": "T1, proprotein convertase subtilisin/kexin …", "assay": "phage ELISA"}, "[5]": {"biological_target": "T4, His-tagged PCSK9Δhelix (human, UniProt Q8NBP7 31-152; Q8NBP7 168-692)", "T4 construct": "Human PCSK9 M1-Q692 with engineered TEV site, cleaved by TEV protease; Target protein of the PCSK9Δhelix/Ab20 TR-FRET assay (1.25 nM); also called His-PCSK9Δhelix", "T4 sequence (Q8NBP7 31-152, stated change not applied, chain 1 of 2)": "as the sequence (Q8NBP7 31-152 limits assumed, chain 1 of 2) above", "T4 sequence (Q8NBP7 other isoform, or with tags, fused parts or gaps mutant, chain 2 of 2)": "as the sequence (Q8NBP7 other isoform, or with tags, fused parts or gaps mutant, chain 2 of 2) above", "assay": "TR-FRET competition; competitor Ab20 on His-PCSK9Δhelix"}, "[6]": {"biological_target": "T5, His-tagged, full-length PCSK9 (human, UniProt A8T644 31-152; Q8NBP7 153-692)", "T5 construct": "Target protein of the PCSK9/EGF(A) TR-FRET assay (10 nM); also called His-PCSK9; proprotein convertase subtilisin/kexin type 9", "T5 sequence (A8T644 31-152 limits assumed, chain 1 of 2)": "as the sequence (Q8NBP7 31-152 limits assumed, chain 1 of 2) above", "T5 sequence (A8T644 other isoform, or with tags, fused parts or gaps limits assumed, chain 2 of 2)": "as the sequence (A8T644 other isoform, or with tags, fused parts or gaps limits assumed, chain 2 of 2) above", "assay": "TR-FRET competition; competitor EGF(A)-Fc on His-PCSK9"}, "[7]": {"biological_target": "T6, His-tagged, full-length PCSK9 (human, UniProt Q8NBP7 31-152; Q8NBP7 153-692)", "T6 construct": "Target protein of the PCSK9/EGF(A) TR-FRET assay (10 nM); also called His-PCSK9", "T6 sequence (Q8NBP7 31-152, chain 1 of 2)": "as the sequence (Q8NBP7 31-152 limits assumed, chain 1 of 2) above", "T6 sequence (Q8NBP7 other isoform, or with tags, fused parts or gaps, chain 2 of 2)": "as the sequence (A8T644 other isoform, or with tags, fused parts or gaps limits assumed, chain 2 of 2) above", "assay": "TR-FRET competition, His-PCSK9; competitor EGF(A)-Fc"}, "[8]": {"biological_target": "T7, PCSK9Δhelix (human, UniProt Q8NBP7 31-152)", "T7 construct": "domain: prodomain; Construct M1-Q692 with engineered TEV site, cut with TEV; His-tagged (tag not written as a part); also called His-PCSK9Δhelix; open groove PCSK9Δhelix", "T7 sequence (Q8NBP7 31-152 limits assumed, stated change not applied, form in doubt, chain 1 of 2)": "as the sequence (Q8NBP7 31-152 limits assumed, chain 1 of 2) above", "T7 sequence (Q8NBP7 other isoform, or with tags, fused parts or gaps mutant limits assumed, form in doubt, chain 2 of 2)": "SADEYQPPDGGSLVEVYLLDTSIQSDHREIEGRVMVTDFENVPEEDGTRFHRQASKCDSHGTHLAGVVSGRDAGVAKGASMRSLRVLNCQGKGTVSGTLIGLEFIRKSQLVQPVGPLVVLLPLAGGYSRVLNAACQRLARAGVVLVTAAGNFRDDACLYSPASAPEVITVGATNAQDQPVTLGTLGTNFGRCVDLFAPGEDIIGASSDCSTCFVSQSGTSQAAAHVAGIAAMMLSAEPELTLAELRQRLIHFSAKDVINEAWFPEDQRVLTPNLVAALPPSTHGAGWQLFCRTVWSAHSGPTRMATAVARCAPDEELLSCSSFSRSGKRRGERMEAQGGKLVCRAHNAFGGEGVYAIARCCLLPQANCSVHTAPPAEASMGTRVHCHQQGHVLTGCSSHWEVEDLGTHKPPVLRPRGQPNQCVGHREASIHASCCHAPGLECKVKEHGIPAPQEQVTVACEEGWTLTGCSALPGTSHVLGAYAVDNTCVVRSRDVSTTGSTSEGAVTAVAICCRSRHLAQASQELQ", "assay": "SPR"}}, "note": "Bridge positions count the residues as written; N and C are the ends. Square brackets hold non-standard residues; d marks the D form. Ends that are not written are not given here. hArg = N=C(N)NCCCC[C@H](N)C(=O)O"}
{"binder": "SGCRLPWNLQRIGLPC (not fully specified (bridges); cysteine pairing not given here, Synthetic peptide)", "note": "[K9gvpep4]", "values": [{"measurement": "binding result", "setting": "[1]", "value": "binds"}]}
{"binder": "Ac-DLMPWNLVRIALLR-NH2", "note": "[Compound 57]", "values": [{"measurement": "IC50", "setting": "[2]", "value": 49.5, "unit": "µM"}, {"measurement": "IC50", "setting": "[3]", "value": "> 50", "unit": "µM"}]}
{"binder": "B1", "values": [{"measurement": "binding result", "setting": "[4]", "value": "binds"}]}
{"binder": "B2", "values": [{"measurement": "IC50", "setting": "[5]", "value": 28.2, "unit": "µM"}, {"measurement": "IC50", "setting": "[6]", "value": "> 50", "unit": "µM"}]}
{"binder": "B3", "values": [{"measurement": "IC50", "setting": "[5]", "value": 1.67, "unit": "µM"}, {"measurement": "IC50", "setting": "[6]", "value": "> 50", "unit": "µM"}]}
{"binder": "Ac-SGDLMPWNLVRIGLLR-NH2", "note": "[Compound 122]", "values": [{"measurement": "IC50", "setting": "[7]", "value": "≥ 50", "unit": "µM"}]}
{"binder": "Ac-WNLVRIGLLR-NH2", "note": "[Compound 53]", "values": [{"measurement": "fold reduction of binding affinity against Compound 35", "setting": "[8]", "value": 10, "unit": "fold"}]}
{"binder": "Ac-WNLV[hArg]IGLLR-NH2 (Ac-WNLV(homoR)IGLLR-NH2)", "note": "[Compound 192]", "values": [{"measurement": "fold improvement of binding affinity against Compound 53", "setting": "[8]", "value": 14, "unit": "fold"}]}
